Measurements from publication PMC7501880.
pKd: −log10 of the molar value.

Target: DIP-α^Nectin1 chimera (human | Drosophila) (UniProt Q15223)
Experiment: SPR

Substance: Dpr10^Nectin3 chimera (from UniProt Q9NQS3 58-167)
- pKd: > 2.30
